# From PMC4659947, “Asparagine requirement in Plasmodium berghei as a target to prevent malaria transmission and liver infections” (Nature Communications, 2015)
# B1: PbAS (recombinant P. berghei asparagine synthetase) (Plasmodium berghei ANKA) (protein)
# chain: MCGILAIFHSSIETNRLRRKALRLSKILRHRGPDWNGIVVEENGDGTTNVLTHERLSIVDVLSGQQPLYDDKKEICLTINGEIYNHLELRKLVKQDILDALKSKSDCAIIPNLYKIYKEKLPCMLDGIFAGVISDKKYNTFFAFRDPIGICPLYIGYAADGSIWFASEFKALRIYCVRYVAFPPGHYYMCNNGKGEFVRYYNPNWWKLNSPIPNNKIDLEKIRITLENAVIKRLMGDVPFGVLLSGGLDSSIIASIISRHLKSIQTGTINNINGACVGKNNKNLNALKSFSIGLKDSPDLKAAKEVSDFLNTDHTEFHFTVDQGIDTLHDVIYHIETYDITTIRASTPMYILSRLIKSSCIKMVLSGEGSDEIFGGYLYFHKAPNAEEFHRELQRKIHDLHIYDVLRANKSTMAFGIEARVPFLDLEFLDLVMNIDPKEKMCSNNRIEKDILRRAFSGYLPDHILYRQKEQFSDGVGYNWIDGLKEYAEKKVSDAQFSRAPFLFPYNTPKTKEAYLYRCIFYQCFPEQCAQEFVPEGPSIACSTSKAIEWDEQFKVNPDQSGRYVLDVHKHSKNIEDIKAA
# notes: full-length cDNA without stop codon in pET-20b(+), BamHI/XhoI, C-terminal 6xHis kept, E. coli Rosetta2DE3pLysS, Ni-NTA, 67 kDa; domains 1-202 and 203-581
# Substrate: N[C@@H](CC(=O)O)C(=O)O
# Experiment: purified protein
# Format: biochemical, Plasmodium berghei
# Conditions: 5 mM glutamine as amino donor, 10 mM ATP, 10 mM MgCl2, 50 mM Tris pH 8.0
protein,measurement,value
B1,Km,0.26 ± 0.05 mM
